Reference: patent US20140127225A1 (NEOTOPE BIOSCIENCES, published 2014)
Each block holds one binder with its values, some of them ahead of it.

How the values were obtained:
[1] = molecular target: T1, human iC3b (purified; Complement Technology #A115) (human, UniProt P01024 23-667); assay: assay not described
T1 construct: range 23-667; Bought purified protein; chains held together by disulfide bonds; also called purified human iC3b

[2] = molecular target: T1, human iC3b (purified; Complement …); assay: Biacore; reference C3b
[3] = molecular target: T1, human iC3b (purified; Complement …); assay: sandwich ELISA; antigen captured by chicken anti-C3; reference C3 or C3b
Source text: For secondary screening, C3, C3b and iC3b were used for testing cross-reactivity. The plate was coated with chicken anti-C3 antibody (LeeBio #CC3-80A) as the capture antibody. For primary screening, only iC3b was used for antigen capture. For antibody characterization, all C3 proteins (C3 (Complement Technology #A113); C3b (Complement Technology #A114); and iC3b (Complement Technology #A115)) were used for antigen capture. Supernatants from cells, control antibody, mouse anti-human iC3b (the A209 antibody (Quidel)), were used as detecting antibodies, respectively. Goat anti-mouse-HRP (Jackson ImmunoResearch #115-035-164) was used as the secondary Antibody. 1-Step ABTS (Thermo #37615) was used as the substrate.
The sandwich ELISA was performed for the two mice in Example 3. First, cell supernatants were only tested for binding to iC3b. C3, C3b, and iC3b were used in the secondary screening for testing cross-reactivity.

[4] = molecular target: T1, human iC3b (purified; Complement …); assay: direct ELISA, plate coated with 10 ug/ml iC3b, goat anti-human-HRP, ABTS, OD405
Experimental: Costar RIA/EIA (Costar #3590) plate was coated with 100 ul/well of 10 ug/ml iC3b (Complement Technologies) at 4 degree overnight. At day 2, the plate was washed 5 times with washing buffer (TPBS+0.05% Tween 20) and blocked with 100 ul blocking buffer (PBS containing 1.5% BSA) per well for 1 hour at room temperature. Then the plate was washed 5 times with washing buffer and incubated with 100 ul per well of testing antibodies as indicated in the figure. After 1 hour of incubation at room temperature, the plate was washed again for 5 times with washing buffer and incubated with 1:4000 diluted Goat anti human-HRP (Jackson Immunoresearch, Code 109-036-098, lot 99937) in 100 ul blocking buffer per well.

[5] = molecular target: T1, human iC3b (purified; Complement …); assay: Biacore; reference C3
Experimental: (§1) A preliminary Biacore assay was done with four concentrations of either iC3b or one of the two potential cross-reactive complement species (e.g., C3b or C3) to assess relative cross-reactivity. Unlike ELISA, a two-fold difference in KD is not sufficient to establish specificity in the Biacore assay. An anti-mouse CM5 chip was prepared following manufacture protocol. Three antibodies (including 6G1) were captured at levels such that Rmax would fall between 25 and 50 RU. Four concentrations of either iC3b or cross-reacting protein were used. Both were from Complement Technologies as described above.

[6] = molecular target: T2, human C3 (purified; Complement Technology #A113) (human, UniProt P01024 23-667; P01024 672-1663); assay: Biacore; antibody captured on anti-mouse CM5 chip, four concentrations of antigen; Biacore; 6G1 captured on chip, C3 in solution: weak binding, >10x weaker than iC3b
T2 construct: range 23-667;range 672-1663; Bought purified protein

[7] = molecular target: T1, human iC3b (purified; Complement …); assay: Biacore; antibody captured on anti-mouse CM5 chip, four concentrations of antigen
Experimental: as §1

[8] = molecular target: T2, human C3 (purified; Complement …); assay: Biacore; antibody captured on anti-mouse CM5 chip, four concentrations of antigen; Biacore; 6G1 captured on chip, C3 in solution: weak binding
[9] = molecular target: T1, human iC3b (purified; Complement …); assay: sandwich ELISA; reference C3b

T2 sequence (P01024 23-667 limits assumed, form in doubt, chain 1 of 2): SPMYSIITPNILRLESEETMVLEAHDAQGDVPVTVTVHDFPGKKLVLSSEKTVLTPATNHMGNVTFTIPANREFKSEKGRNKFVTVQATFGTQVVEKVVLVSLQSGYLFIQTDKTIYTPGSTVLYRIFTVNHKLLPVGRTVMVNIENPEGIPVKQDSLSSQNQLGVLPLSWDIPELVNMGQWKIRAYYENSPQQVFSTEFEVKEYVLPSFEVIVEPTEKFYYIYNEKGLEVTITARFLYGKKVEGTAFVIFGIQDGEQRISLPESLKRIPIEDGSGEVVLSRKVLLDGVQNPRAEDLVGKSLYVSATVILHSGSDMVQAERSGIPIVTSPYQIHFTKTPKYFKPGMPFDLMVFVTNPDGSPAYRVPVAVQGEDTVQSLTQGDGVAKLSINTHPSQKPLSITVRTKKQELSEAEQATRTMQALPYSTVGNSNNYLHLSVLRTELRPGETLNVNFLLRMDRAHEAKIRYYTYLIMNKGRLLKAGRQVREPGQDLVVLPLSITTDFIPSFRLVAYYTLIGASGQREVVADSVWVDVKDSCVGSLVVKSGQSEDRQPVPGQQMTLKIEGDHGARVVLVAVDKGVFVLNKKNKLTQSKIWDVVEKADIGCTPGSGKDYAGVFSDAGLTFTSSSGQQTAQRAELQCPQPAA
T2 sequence (P01024 672-1663 limits assumed, form in doubt, chain 2 of 2): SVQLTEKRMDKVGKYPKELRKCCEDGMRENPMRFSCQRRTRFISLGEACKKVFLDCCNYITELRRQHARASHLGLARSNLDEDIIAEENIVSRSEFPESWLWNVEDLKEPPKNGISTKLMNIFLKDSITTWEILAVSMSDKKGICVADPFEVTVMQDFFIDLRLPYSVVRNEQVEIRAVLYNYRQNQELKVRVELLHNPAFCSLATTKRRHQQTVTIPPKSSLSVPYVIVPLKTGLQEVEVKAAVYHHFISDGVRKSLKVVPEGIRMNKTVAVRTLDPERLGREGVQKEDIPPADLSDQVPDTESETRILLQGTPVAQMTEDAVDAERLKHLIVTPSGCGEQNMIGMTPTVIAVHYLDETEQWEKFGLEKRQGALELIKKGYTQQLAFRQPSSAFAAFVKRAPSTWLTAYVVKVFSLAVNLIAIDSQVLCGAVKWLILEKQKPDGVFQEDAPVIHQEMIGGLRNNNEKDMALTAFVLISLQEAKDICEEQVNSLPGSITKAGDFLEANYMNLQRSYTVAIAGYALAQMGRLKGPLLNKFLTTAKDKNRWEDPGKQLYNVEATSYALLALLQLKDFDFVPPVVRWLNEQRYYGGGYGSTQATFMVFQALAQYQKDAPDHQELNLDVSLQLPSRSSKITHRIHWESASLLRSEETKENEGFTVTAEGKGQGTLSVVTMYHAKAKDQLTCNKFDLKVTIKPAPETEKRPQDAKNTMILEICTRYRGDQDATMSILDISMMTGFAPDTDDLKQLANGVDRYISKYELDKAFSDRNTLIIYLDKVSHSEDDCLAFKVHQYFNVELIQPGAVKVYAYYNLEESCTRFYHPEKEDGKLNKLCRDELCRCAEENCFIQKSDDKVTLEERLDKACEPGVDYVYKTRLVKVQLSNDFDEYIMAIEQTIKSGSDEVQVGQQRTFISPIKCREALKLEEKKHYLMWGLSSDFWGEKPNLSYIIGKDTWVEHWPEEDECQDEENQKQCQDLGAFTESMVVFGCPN
T1 sequence (P01024 23-667 limits assumed, chain 1 of 3): as the sequence (P01024 23-667 limits assumed, form in doubt, chain 1 of 2) above
T1 sequence (P01024 749-1303 limits assumed, chain 2 of 3): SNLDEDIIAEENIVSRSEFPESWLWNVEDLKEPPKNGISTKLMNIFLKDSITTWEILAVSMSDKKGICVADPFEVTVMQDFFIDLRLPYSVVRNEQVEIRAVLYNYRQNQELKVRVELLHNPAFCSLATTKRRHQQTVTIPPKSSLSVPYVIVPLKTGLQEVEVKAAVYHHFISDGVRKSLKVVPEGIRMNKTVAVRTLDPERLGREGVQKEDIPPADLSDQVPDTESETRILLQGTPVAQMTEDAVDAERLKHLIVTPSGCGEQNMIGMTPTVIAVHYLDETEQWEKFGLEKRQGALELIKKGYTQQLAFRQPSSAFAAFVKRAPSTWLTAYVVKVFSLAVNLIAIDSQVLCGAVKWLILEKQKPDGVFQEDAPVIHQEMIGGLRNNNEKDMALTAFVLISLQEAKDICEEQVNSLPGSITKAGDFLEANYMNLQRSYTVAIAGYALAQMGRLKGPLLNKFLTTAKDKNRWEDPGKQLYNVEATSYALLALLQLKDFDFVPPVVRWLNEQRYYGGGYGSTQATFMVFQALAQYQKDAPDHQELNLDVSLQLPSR
T1 sequence (P01024 1321-1663 limits assumed, chain 3 of 3): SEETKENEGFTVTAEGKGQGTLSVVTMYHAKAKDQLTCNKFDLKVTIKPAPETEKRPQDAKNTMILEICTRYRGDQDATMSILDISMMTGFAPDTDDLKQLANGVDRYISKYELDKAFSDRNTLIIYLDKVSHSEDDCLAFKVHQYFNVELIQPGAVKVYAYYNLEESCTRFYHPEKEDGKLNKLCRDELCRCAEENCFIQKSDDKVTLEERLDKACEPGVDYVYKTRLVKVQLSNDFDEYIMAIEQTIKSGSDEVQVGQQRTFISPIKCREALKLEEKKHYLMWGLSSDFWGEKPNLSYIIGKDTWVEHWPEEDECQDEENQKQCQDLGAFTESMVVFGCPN

B1: humanized 5D2 version H1L1 (antibody, V domains shown)
VH: EVQLQQSGAEVKKPGASVKVSCKASGYTFTDNYYMNWVRQAPGQSLEWMGHIYPNNGVTSYNQKFRGRVTLTRDKSINTAYMELSSLTSEDTALYYCARNKLLSLYWYFDVWGQGTLVTVSS
VL: DIQMTQSPSSLSASVGDRVTITCRASVDIYNRLAWFQQKPGKAPKLLISGATSLATGVPSRFSGSGSGKDYTLTISSLQPEDFATYYCQQYWSTPWTFGGGTKLEIKR
notes: also called 5D2 H1L1
binding result [1]: binds

B2: humanized 5D2 version H2L1 (antibody, V domains shown)
VH: EVQLQQSGAEVKKPGASVKVSCKASGYTFTDNYYMNWVRQAPGQSLEWMGHIYPNNGVTSYNQKFRGRVTITRDKSINTAYMELSSLTSEDTAVYYCARNKLLSLYWYFDVWGQGTLVTVSS
VL: DIQMTQSPSSLSASVGDRVTITCRASVDIYNRLAWFQQKPGKAPKLLISGATSLATGVPSRFSGSGSGKDYTLTISSLQPEDFATYYCQQYWSTPWTFGGGTKLEIKR
notes: also called 5D2 H2L1
binding result [1]: binds

B3: mouse monoclonal antibody 5D2 (antibody, IgG1, V domains shown)
VH: EVQLQQSGPELVKPGASVKISCKASGYTFTDNYYMNWVKQSHGKSLEWIGHIYPNNGVTSYNQKFRGKATLTVDKSSNSAYMELRSLTSEDSALYYCARNKLLSLYWYFDVWGTGTSVTVSS
VL: DIQMTQSSSSFSVFLGDRITITCRASVDIYNRLAWFQQKPGNAPRLLISGATSLATGVPSRFSGSGSGKDYTLSITSLQTEDVTIYYCQQYWSTPWTFGGGTKLEIKR
notes: also called m5D2
fold higher affinity constant for iC3b than C3b [2]: ≥ 10 fold
fold specificity for iC3b vs. C3 or C3b [3]: > 2 fold

B4: humanized 6G1 version H3L3 (antibody, V domains shown)
VH: QVQLVQSGSELKKPGASVKVSCKASGYTFTNYGMNWVKQAPGQDLKWMGWINTYTGEPRYADEFKGRFVFSLDTSVSTAYLQISSLKAEDTATYYCARGGYPHYYSMDYWGQGTTVTVSS
VL: DIQMTQSPSSLSASVGDRVTITCRASQDINNYLNWYQQKPGKTPKLLIYYTSKLHSGVPSRFSGSGSGRDYILTISSLQPEDIATYYCQQGNTLPRTFGGGTKVEIKR
notes: Only variable regions are tied to it; also called Hu6G1 H3L3
EC50 (read off the curve) [4]: ~0.08 µg/mL

B5: huH1L5 (antibody, V domains shown)
VH: QVQLVQSGSELKKPGASVKVSCKASGYTFTNYGMNWVRQAPGQGLKWMGWINTYTGEPRYADEFKGRFVFSLDTSVSTAYLQISSLKAEDTATYYCARGGYPHYYSMDYWGQGTTVTVSS
VL: DIQMTQSPSSLSASVGDRVTITCRASQDINNYLNWYQQKPGKTPKLLIYYTSKLHSGVPSRFSGSGSGRDYILTISSLQPEDIATYFCQQGNTLPRTFGGGTKVEIKR
notes: also called humanized 6G1 version H1L5
binding result [4]: binds

B8: chimeric 6G1 (antibody, V domains shown)
VH: QIQLVQSGPELKKPGETVKISCKASGYTFTNYGMNWVKQAPGKDLKWMGWINTYTGEPRYADEFKGRFAFSLETSASTAYLQINNLKNEDMATYFCAKGGYPHYYSMDYWGQGTSVTVSS
VL: DIQMTQSTSSLSASLGDRVTISCRASQDINNYLNWYQQKPDGTIKLLIYYTSKLHSGVPSRFSGSGSGRDYSLTISNLEQEDIATYFCQQGNTLPRTFGGGTKLEIKR
notes: also called chi-6G1
EC50 (read off the curve) [4]: ~0.08 µg/mL

B9: mouse monoclonal antibody 6G1 (antibody, V domains shown)
VH: QIQLVQSGPELKKPGETVKISCKASGYTFTNYGMNWVKQAPGKDLKWMGWINTYTGEPRYADEFKGRFAFSLETSASTAYLQINNLKNEDMATYFCAKGGYPHYYSMDYWGQGTSVTVSS
VL: DIQMTQSTSSLSASLGDRVTISCRASQDINNYLNWYQQKPDGTIKLLIYYTSKLHSGVPSRFSGSGSGRDYSLTISNLEQEDIATYFCQQGNTLPRTFGGGTKLEIKR
notes: Mouse hybridoma antibody; also called m6G1
fold difference in KD, iC3b relative to C3 [5]: > 10 fold
Kd [6]: 2100 nM
Kd [7]: 43.3 nM
kon [7]: 98000 M⁻¹ s⁻¹
fold higher affinity constant for iC3b than C3b [2]: ≥ 10 fold
fold specificity for iC3b vs. C3 or C3b [3]: > 2 fold
koff [8]: 0.028 s⁻¹
kon [8]: 13000 M⁻¹ s⁻¹

Further lines, results first:

EC50 (read off the curve) [4]: ~0.1 µg/mL
B6: humanized 6G1 version H1L2 (antibody, V domains shown)
VH: QVQLVQSGSELKKPGASVKVSCKASGYTFTNYGMNWVRQAPGQGLKWMGWINTYTGEPRYADEFKGRFVFSLDTSVSTAYLQISSLKAEDTATYYCARGGYPHYYSMDYWGQGTTVTVSS
VL: DIQMTQSPSSLSASVGDRVTITCRASQDINNYLNWYQQKPGKTPKLLIYYTSKLHSGVPSRFSGSGSGRDYIFTISSLQPEDIATYYCQQGNTLPRTFGGGTKVEIKR
notes: H1 = 6G1 Hu v1 heavy, L2 = 6G1 Hu v2 light

binding result [4]: binds
B7: humanized 6G1 version H3L5 (antibody, V domains shown)
VH: QVQLVQSGSELKKPGASVKVSCKASGYTFTNYGMNWVKQAPGQDLKWMGWINTYTGEPRYADEFKGRFVFSLDTSVSTAYLQISSLKAEDTATYYCARGGYPHYYSMDYWGQGTTVTVSS
VL: DIQMTQSPSSLSASVGDRVTITCRASQDINNYLNWYQQKPGKTPKLLIYYTSKLHSGVPSRFSGSGSGRDYILTISSLQPEDIATYFCQQGNTLPRTFGGGTKVEIKR
notes: H3 = 6G1 Hu v3 heavy, L5 = 6G1 Hu v5 light

fold higher affinity constant for iC3b than C3b [9]: ≥ 2 fold
fold higher affinity constant for iC3b than C3b [2]: ≥ 10 fold
B10: mouse monoclonal antibody 2H8r (antibody, V domains shown)
VH: QIQLVQSGPELKKPGETVKISCKASGYTFTNYGMNWVKQAPGKGLKWMGWINTYTGEPTYADDFKGRFAFSLETSASTAYLQINNLKNEDMATYFCAKGGYPHYYSMDYWGQGTSVTVSS
VL: DIQMTQTTSSLSASLGDRVTISCRASQDISNYLNWYQQKPDGTVKLLIYYTSRLHSGVPSRFSGSGSGTDYSLTISNLEQEDIATYFCQQGKTLPRTFGGGTKLEIKR
notes: also called m2H8r
